In patent US20250263482A1 (SHIJIAZHUANG YILING PHARMACEUTICAL, published 2025):

Target: T1, human CLDN18.2 expressed on cells (human)
T1 construct: Tight junction membrane protein; also called huCLDN18.2
Assay: flow cytometry (geometric mean) on CLDN18.2-expressing 293T cells, Alexa Fluor 647 anti-human IgG Fc secondary
Protocol: CLDN18.2-expressing 293T cells and CLDN18.1-expressing 293T cells at a density of 2×10⁶ cells/ml in FACS buffer ([…]) were mixed with a dilution series ([…] in FACS buffer) of the chimeric antibodies, the reference antibody, or a IgG negative control (50 μL) in a 96-well V-bottom plate and incubated for 30 min on ice. After a wash with 200 μL/well FACS buffer, cells were resuspended in 30 μL/well secondary antibody Alexa Fluor® 647 AffiniPure Goat Anti-Human IgG, […] specific (Jackson, Cat. #109-605-098) and incubated for 20 min on ice. After three washes with 200 μL/well FACS buffer, cells were resuspended with 150 μl/well FACS buffer and subjected to FACS using BD LSR II Flow Cytometer (HTS). Geometric mean was used for data analysis and plots were made using Prism GraphPad.

Row | EC50 (read off the curve) [µg/mL] | Binder
1 | ~0.6 | YL-G1-19-02 (antibody, human IgG1, kappa, also called YL-G1-02; YL-G-19-02) heavy: not shown light: DIVMTQSPSSLTVTAGEKVTMSCKSSQSLLNSGNQKNYLTWYQQRPGQPPKLLIYWASTRESGVPVRFTGSGSGTDFTLTISSVQAEDLAVYYCQNAYIYPLTFGTGTKLELKRTVAAPSVFIFPPSDEQLKSGTASVVCLLNNFYPREAKVQWKVDNALQSGNSQESVTEQDSKDSTYSLSSTLTLSKADYEKHKVYACEVTHQGLSSPVTKSFNRGEC
2 | ~0.8 | YL-G1-19-01 (antibody, human IgG1, kappa, V domains shown, also called 1st generation chimeric antibody) VH: QVQLQQSGAELVRPGTSVKVSCKASGYAFTNYLIEWVKQRPGQGLEWIGVINPGSGGTNYNEKFKGKATLTADKSSNTAYMQLSSLTSEDSAVYFCARVYYGNSFGYWGQGTLVTVSA VL: DIVMTQSPSSLTVTAGEKVTMSCKSSQSLLNSGNQKNYLTWYQQKPGQPPKLLIYWASTRESGVPDRFTGSGSGTDFTLTISSVQAEDLAVYYCQNEYFYPFTFGSGTKLEIKR
